Measurements: publication doi:10.1101/743492

Molecular target: mCherry-labeled WASp (Drosophila melanogaster)
Assay: FRET or BRET

“eGFP-labeled Cdc42 (from UniProt P40793 1-191) (natural protein)” gave an FRET probability of 0.24.
